From the supplement of paper PMC9112550, “Optimization of the antimicrobial peptide Bac7 by deep mutational scanning” (BMC Biology, 2022) come the findings set out here.

This data set concerns Escherichia coli TOP10. As to the kind of experiment: shrunken log2 fold change of peptide-encoding DNA abundance (4.5 h post-induction vs induction); higher = less antimicrobial activity (less host growth inhibition). The note with it: time post-induction: 4.5 h; library: site-saturation at positions 5, 18, 19, 20.
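Note: peptides expressed intracellularly from a pBAD plasmid library in pooled LB shake-flask culture, induced with 0.3% L-arabinose, DNA abundance read by NGS, three biological replicates, DESeq2 with apeglm shrinkage.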

On to RRIRTRPPRLPRPRPRPTMVPRP, for which the “shrunken log2 fold change” value is -0.0941.
For RRIRKRPPRLPRPRPRPNYEPRP the value was -0.0635.
To RRIRVRPPRLPRPRPRPFDWPRP belongs -0.103.
RRIRNRPPRLPRPRPRPCGMPRP: the “shrunken log2 fold change” value is -0.45.
For RRIRMRPPRLPRPRPRPQDHPRP the value was -0.0101; for RRIRGRPPRLPRPRPRPYVGPRP, 0.0053; for RRIRRRPPRLPRPRPRPDPEPRP, 0.307.
To RRIRERPPRLPRPRPRPNKLPRP belongs -0.596.
For RRIRARPPRLPRPRPRPTHQPRP the value was 0.528; for RRIRWRPPRLPRPRPRPWQPPRP, -0.0542.
Take RRIRIRPPRLPRPRPRPKALPRP: the “shrunken log2 fold change” value is -0.0211.
To RRIRIRPPRLPRPRPRPLNTPRP belongs -0.876.
In the case of RRIRTRPPRLPRPRPRPRITPRP, the “shrunken log2 fold change” value is -0.474.
To RRIRTRPPRLPRPRPRPVFAPRP belongs 0.214; to RRIRCRPPRLPRPRPRPQDIPRP, -0.213; to RRIRQRPPRLPRPRPRPVTSPRP, -0.0277.
For RRIRTRPPRLPRPRPRPIKTPRP the value was -0.0452.
For RRIRVRPPRLPRPRPRPQFWPRP the value was -0.178.
As for RRIRDRPPRLPRPRPRPFIAPRP, the “shrunken log2 fold change” value is -0.237.
To RRIRKRPPRLPRPRPRPLSFPRP belongs -0.191; to RRIRMRPPRLPRPRPRPIWTPRP, 0.12.
To RRIRRRPPRLPRPRPRPISPPRP belongs -0.00237; to RRIRFRPPRLPRPRPRPDKAPRP, -0.0262; to RRIRHRPPRLPRPRPRPIEFPRP, -0.19.
For the sequence RRIRPRPPRLPRPRPRPTHIPRP, the “shrunken log2 fold change” value stood at 0.0811.
RRIRLRPPRLPRPRPRPNRFPRP: the “shrunken log2 fold change” value is -0.404.
For RRIRLRPPRLPRPRPRPARVPRP, the “shrunken log2 fold change” value amounted to 0.329.
RRIRARPPRLPRPRPRPYLCPRP: the “shrunken log2 fold change” value is -0.291.
To RRIRGRPPRLPRPRPRPSFVPRP belongs 0.0328; to RRIRNRPPRLPRPRPRPYNHPRP, -1.85.
For RRIRERPPRLPRPRPRPDVQPRP the value was -0.0408; for RRIRIRPPRLPRPRPRPMERPRP, -0.0018; for RRIRARPPRLPRPRPRPECFPRP, 0.938.
To RRIRARPPRLPRPRPRPYYEPRP belongs -1.02.
On to RRIRERPPRLPRPRPRPYELPRP, for which the “shrunken log2 fold change” value is -0.563.
For RRIRLRPPRLPRPRPRPDDDPRP the value was 0.129.
To RRIRYRPPRLPRPRPRPYLFPRP belongs -0.687; to RRIRMRPPRLPRPRPRPSQHPRP, 0.136; to RRIRERPPRLPRPRPRPVYSPRP, -0.409.
To RRIRRRPPRLPRPRPRPSPTPRP belongs 0.598; to RRIRFRPPRLPRPRPRPVRWPRP, 0.632; to RRIRSRPPRLPRPRPRPPTDPRP, 0.429.
With RRIRGRPPRLPRPRPRPRKTPRP, the “shrunken log2 fold change” value amounted to 0.375.
For RRIRVRPPRLPRPRPRPRASPRP the value was 0.281; for RRIRPRPPRLPRPRPRPYHIPRP, -0.672; for RRIRVRPPRLPRPRPRPECWPRP, 0.573.
To RRIRARPPRLPRPRPRPQQGPRP belongs -0.0917; to RRIRCRPPRLPRPRPRPNYPPRP, -0.427.
To RRIRMRPPRLPRPRPRPYGWPRP belongs 0.0956.
As for RRIRNRPPRLPRPRPRPNYMPRP, the “shrunken log2 fold change” value was -0.784.
Consider RRIRDRPPRLPRPRPRPRIEPRP, for which the “shrunken log2 fold change” value was 0.119.
For RRIRGRPPRLPRPRPRPSPDPRP the value was 0.69.
To RRIRMRPPRLPRPRPRPARIPRP belongs 0.56.
For RRIRCRPPRLPRPRPRPRWGPRP the value was 0.495.
As to RRIRHRPPRLPRPRPRPVYPPRP, the “shrunken log2 fold change” value was -0.529.
For RRIRMRPPRLPRPRPRPIFMPRP the value was -0.0298.
Take RRIRVRPPRLPRPRPRPVCFPRP: the “shrunken log2 fold change” value stood at 0.147.
For RRIRCRPPRLPRPRPRPPWPPRP the value was 0.54; for RRIRARPPRLPRPRPRPNLAPRP, -0.179; for RRIRHRPPRLPRPRPRPGMFPRP, -0.178.
For RRIRMRPPRLPRPRPRPCACPRP the value was 0.0487; for RRIRHRPPRLPRPRPRPYTCPRP, -0.0278; for RRIRHRPPRLPRPRPRPKHWPRP, 0.26.
To RRIRVRPPRLPRPRPRPPPIPRP belongs 0.59.
RRIRNRPPRLPRPRPRPPCYPRP: the “shrunken log2 fold change” value is -0.41.
To RRIRLRPPRLPRPRPRPFLVPRP belongs -0.338; to RRIRIRPPRLPRPRPRPWKHPRP, -0.0111; to RRIRERPPRLPRPRPRPLEPPRP, 0.0736.
To RRIRMRPPRLPRPRPRPCYCPRP belongs -0.289.
With RRIRHRPPRLPRPRPRPEKGPRP, the “shrunken log2 fold change” value is -0.00804.
To RRIRDRPPRLPRPRPRPYPEPRP belongs 0.0271.
For RRIRPRPPRLPRPRPRPVYQPRP the value was -0.0913.
To RRIRSRPPRLPRPRPRPPMMPRP belongs 0.0697; to RRIRLRPPRLPRPRPRPWIMPRP, -0.224; to RRIRRRPPRLPRPRPRPAMTPRP, 0.314.
In the case of RRIRKRPPRLPRPRPRPFCIPRP, the “shrunken log2 fold change” value came out at 0.0646.
As for RRIRGRPPRLPRPRPRPHPGPRP, the “shrunken log2 fold change” value was determined as 0.421.
For RRIRRRPPRLPRPRPRPPALPRP the value was 0.635; for RRIRGRPPRLPRPRPRPRRTPRP, 0.67.
For RRIRNRPPRLPRPRPRPWYAPRP the value was -0.533; for RRIRVRPPRLPRPRPRPGHLPRP, -0.185.
To RRIRIRPPRLPRPRPRPVMIPRP belongs -0.00671.
For the sequence RRIRFRPPRLPRPRPRPDHYPRP, the “shrunken log2 fold change” value is -0.184.
With RRIRQRPPRLPRPRPRPGIMPRP, the “shrunken log2 fold change” value is -0.0424.
For RRIRVRPPRLPRPRPRPSQNPRP the value was -0.242; for RRIRERPPRLPRPRPRPCLAPRP, -0.526; for RRIRERPPRLPRPRPRPYEVPRP, -0.448.
For RRIRKRPPRLPRPRPRPRIEPRP the value was 0.112; for RRIRYRPPRLPRPRPRPSHYPRP, -0.966.
For RRIRLRPPRLPRPRPRPYSCPRP the value was -0.458.
As to RRIRLRPPRLPRPRPRPEWSPRP, the “shrunken log2 fold change” value was -0.178.
For RRIRFRPPRLPRPRPRPASNPRP the value was -0.479; for RRIRHRPPRLPRPRPRPTCIPRP, -0.147; for RRIRYRPPRLPRPRPRPWSKPRP, -0.0945.
Take RRIRVRPPRLPRPRPRPVHDPRP: the “shrunken log2 fold change” value is -0.745.
Turning to RRIRYRPPRLPRPRPRPPIPPRP, the “shrunken log2 fold change” value is 0.31.
For RRIRERPPRLPRPRPRPRKEPRP the value was -0.0305; for RRIRYRPPRLPRPRPRPNQWPRP, 0.00192; for RRIRVRPPRLPRPRPRPWKVPRP, -0.0954.
For RRIRCRPPRLPRPRPRPTADPRP the value was 0.363; for RRIRRRPPRLPRPRPRPFVKPRP, -0.373; for RRIRYRPPRLPRPRPRPLAWPRP, -0.0165.
To RRIRVRPPRLPRPRPRPQAEPRP belongs 0.352; to RRIRHRPPRLPRPRPRPTSPPRP, -0.0524; to RRIRPRPPRLPRPRPRPHDQPRP, 0.134.
As for RRIRSRPPRLPRPRPRPQWWPRP, the “shrunken log2 fold change” value was 0.0138.
To RRIRWRPPRLPRPRPRPPHAPRP belongs 1.04.
In the case of RRIRYRPPRLPRPRPRPNIVPRP, the “shrunken log2 fold change” value is -0.224.
Consider RRIRYRPPRLPRPRPRPRRTPRP, for which the “shrunken log2 fold change” value was -0.202.
To RRIRERPPRLPRPRPRPECQPRP belongs -0.0134; to RRIRLRPPRLPRPRPRPQYRPRP, -0.188; to RRIRIRPPRLPRPRPRPHIVPRP, -0.0875.
For RRIRHRPPRLPRPRPRPVDNPRP the value was 0.013.
To RRIRKRPPRLPRPRPRPMTMPRP belongs -0.00185; to RRIRMRPPRLPRPRPRPIFKPRP, 0.161; to RRIRLRPPRLPRPRPRPGHQPRP, 0.122.
Regarding RRIRARPPRLPRPRPRPMILPRP, the “shrunken log2 fold change” value worked out at 0.0109.
To RRIRNRPPRLPRPRPRPLPTPRP belongs -0.0778; to RRIRFRPPRLPRPRPRPHDNPRP, -0.392.
For RRIRMRPPRLPRPRPRPTACPRP the value was 1.02; for RRIRMRPPRLPRPRPRPRMVPRP, 0.125.
For RRIRFRPPRLPRPRPRPCCFPRP the value was -0.354; for RRIRCRPPRLPRPRPRPWTWPRP, 0.00573; for RRIRLRPPRLPRPRPRPLKCPRP, -0.0489.
Regarding RRIRIRPPRLPRPRPRPAIFPRP, the “shrunken log2 fold change” value was -0.102.
